Measured values: article PMC4997346 (2016)
No end group written: not given here.

Tests used:
[1] = molecular target: T1, FVIIa/TF extrinsic tenase complex [E] (Homo sapiens, UniProt P08709); assay: FIX activation inhibition kinetics (Lineweaver-Burk secondary plot)
T1 chain 1: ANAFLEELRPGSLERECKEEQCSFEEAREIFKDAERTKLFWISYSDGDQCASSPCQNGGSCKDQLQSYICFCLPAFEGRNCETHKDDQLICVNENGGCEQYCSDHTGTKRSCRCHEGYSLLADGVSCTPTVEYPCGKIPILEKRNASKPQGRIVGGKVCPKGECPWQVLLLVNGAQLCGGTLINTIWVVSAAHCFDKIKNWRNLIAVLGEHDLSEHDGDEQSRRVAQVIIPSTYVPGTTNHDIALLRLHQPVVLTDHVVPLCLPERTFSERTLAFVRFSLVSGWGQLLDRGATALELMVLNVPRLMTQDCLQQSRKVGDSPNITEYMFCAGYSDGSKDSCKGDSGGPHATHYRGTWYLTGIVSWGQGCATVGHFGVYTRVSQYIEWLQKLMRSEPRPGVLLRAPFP
T1 chain 2: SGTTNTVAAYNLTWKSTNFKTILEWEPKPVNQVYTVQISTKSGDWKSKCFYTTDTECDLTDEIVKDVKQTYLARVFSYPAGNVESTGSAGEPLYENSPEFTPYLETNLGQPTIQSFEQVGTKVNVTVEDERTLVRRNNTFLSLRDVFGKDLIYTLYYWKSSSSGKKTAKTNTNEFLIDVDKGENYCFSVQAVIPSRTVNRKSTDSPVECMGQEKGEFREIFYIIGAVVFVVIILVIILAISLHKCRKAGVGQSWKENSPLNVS

[2] = molecular target: FVIIa/TF/FIX complex [ES] (Homo sapiens, UniProt P08709); assay: FIX activation inhibition kinetics (Lineweaver-Burk secondary plot, Ki')
[3] = molecular target: intrinsic tenase complex (FIXa/FVIIIa) (Homo sapiens, UniProt P00740); assay: FX activation inhibition kinetics (Lineweaver-Burk secondary plot)
Sequence of intrinsic tenase complex (FIXa/FVIIIa) (P00740 47-461, chain 1 of 2): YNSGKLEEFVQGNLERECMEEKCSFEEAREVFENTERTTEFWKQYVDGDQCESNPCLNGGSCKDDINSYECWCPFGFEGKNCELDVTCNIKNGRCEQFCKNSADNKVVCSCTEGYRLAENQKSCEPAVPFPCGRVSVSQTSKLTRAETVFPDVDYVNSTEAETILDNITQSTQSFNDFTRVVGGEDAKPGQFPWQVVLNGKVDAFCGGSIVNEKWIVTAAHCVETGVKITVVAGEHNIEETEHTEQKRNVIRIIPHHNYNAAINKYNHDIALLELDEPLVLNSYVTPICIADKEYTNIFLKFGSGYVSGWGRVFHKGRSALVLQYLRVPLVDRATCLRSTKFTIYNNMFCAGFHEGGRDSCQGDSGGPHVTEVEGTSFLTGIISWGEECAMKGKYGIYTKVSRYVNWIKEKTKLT
Sequence of intrinsic tenase complex (FIXa/FVIIIa) (P00451 20-2351, chain 2 of 2, further chain): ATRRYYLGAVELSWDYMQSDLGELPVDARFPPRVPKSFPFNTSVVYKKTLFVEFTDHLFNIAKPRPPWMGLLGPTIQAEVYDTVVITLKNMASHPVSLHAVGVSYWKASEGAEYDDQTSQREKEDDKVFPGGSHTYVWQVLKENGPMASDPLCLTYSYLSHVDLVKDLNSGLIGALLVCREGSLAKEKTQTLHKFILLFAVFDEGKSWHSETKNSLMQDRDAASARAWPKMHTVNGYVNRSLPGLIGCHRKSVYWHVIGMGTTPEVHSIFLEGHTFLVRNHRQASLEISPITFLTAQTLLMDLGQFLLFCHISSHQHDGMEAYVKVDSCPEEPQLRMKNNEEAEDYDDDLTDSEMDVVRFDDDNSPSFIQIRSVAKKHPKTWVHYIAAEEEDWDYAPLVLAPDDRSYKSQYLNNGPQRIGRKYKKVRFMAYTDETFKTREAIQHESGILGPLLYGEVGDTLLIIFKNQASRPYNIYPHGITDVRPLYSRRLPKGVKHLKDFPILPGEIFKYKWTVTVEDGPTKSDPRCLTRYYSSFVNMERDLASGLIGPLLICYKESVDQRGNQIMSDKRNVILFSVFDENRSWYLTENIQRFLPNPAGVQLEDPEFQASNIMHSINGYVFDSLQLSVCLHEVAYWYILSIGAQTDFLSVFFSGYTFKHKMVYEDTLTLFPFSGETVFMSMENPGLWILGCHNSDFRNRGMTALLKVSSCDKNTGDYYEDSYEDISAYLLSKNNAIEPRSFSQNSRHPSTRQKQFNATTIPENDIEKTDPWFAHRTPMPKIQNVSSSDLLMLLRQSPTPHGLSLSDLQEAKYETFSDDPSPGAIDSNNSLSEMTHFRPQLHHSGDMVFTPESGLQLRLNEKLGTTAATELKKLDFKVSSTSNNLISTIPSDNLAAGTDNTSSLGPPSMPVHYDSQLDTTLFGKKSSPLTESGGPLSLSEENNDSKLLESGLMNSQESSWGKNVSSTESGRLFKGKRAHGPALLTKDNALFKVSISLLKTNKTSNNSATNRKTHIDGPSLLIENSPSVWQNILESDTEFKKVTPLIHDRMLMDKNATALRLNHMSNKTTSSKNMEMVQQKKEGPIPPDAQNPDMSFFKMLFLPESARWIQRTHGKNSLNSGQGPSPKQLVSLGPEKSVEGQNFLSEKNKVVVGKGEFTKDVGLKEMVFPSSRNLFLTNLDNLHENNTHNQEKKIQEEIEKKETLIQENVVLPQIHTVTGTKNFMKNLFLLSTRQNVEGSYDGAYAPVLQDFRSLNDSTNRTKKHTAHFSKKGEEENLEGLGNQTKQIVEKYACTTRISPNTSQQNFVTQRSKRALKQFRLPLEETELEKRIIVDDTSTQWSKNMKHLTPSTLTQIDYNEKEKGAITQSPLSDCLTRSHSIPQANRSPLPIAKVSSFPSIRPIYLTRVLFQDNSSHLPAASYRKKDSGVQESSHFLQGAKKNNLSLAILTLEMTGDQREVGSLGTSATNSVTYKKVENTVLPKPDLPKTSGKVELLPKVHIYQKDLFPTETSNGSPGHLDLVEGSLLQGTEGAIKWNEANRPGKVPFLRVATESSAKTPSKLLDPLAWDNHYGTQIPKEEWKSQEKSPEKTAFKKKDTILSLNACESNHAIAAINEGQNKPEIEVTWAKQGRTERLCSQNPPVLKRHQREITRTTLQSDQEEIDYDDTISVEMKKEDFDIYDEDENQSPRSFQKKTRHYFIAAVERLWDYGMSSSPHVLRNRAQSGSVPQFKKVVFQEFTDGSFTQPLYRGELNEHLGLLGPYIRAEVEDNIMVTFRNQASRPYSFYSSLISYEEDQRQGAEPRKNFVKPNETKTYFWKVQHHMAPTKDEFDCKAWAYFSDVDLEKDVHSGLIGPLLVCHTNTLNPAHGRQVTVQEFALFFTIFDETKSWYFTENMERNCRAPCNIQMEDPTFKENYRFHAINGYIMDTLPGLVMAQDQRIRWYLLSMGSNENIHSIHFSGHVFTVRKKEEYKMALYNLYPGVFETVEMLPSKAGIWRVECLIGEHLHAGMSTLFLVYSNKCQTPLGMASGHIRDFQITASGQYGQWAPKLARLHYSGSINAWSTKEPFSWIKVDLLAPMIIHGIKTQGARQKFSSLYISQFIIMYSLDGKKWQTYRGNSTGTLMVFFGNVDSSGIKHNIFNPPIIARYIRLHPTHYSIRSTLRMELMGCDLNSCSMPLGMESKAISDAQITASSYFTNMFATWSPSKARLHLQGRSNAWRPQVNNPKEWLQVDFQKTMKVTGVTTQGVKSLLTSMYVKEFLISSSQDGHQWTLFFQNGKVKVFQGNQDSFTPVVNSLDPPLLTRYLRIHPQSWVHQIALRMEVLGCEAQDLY

FVIIa [E] = molecular target: T2, FVIIa [E] (Homo sapiens, UniProt P08709); assay: as above
T2 chain 1: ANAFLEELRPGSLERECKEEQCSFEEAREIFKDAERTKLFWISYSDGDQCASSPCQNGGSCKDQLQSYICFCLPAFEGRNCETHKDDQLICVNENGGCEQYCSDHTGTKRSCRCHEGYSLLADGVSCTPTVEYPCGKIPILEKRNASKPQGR
T2 chain 2: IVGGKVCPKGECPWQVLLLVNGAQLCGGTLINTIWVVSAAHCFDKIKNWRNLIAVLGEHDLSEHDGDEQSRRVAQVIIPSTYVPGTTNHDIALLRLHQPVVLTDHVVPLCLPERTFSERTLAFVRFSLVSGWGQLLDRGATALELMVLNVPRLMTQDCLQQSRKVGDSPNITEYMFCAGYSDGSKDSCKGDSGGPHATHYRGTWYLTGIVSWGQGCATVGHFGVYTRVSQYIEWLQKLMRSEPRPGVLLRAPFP

[4] = molecular target: T1, FVIIa/TF extrinsic tenase complex [E]; assay: as above
FVIIa/FX complex [ES] = FVIIa/FX complex [ES] (Homo sapiens, UniProt P08709); assay: FX activation inhibition kinetics (Lineweaver-Burk secondary plot, Ki')
[5] = molecular target: FVIIa/TF/FX extrinsic tenase complex [ES] (Homo sapiens, UniProt P08709); assay: as above
FVIIa/sTF complex [E] = molecular target: T3, FVIIa/sTF complex [E] (Homo sapiens, UniProt P08709); assay: FX activation inhibition kinetics (Lineweaver-Burk secondary plot)
T3 chain 1: T1 chain 1
T3 chain 2: T1 chain 2

[6] = molecular target: FVIIa/sTF/FX complex [ES] (Homo sapiens, UniProt P08709); assay: FX activation inhibition kinetics (Lineweaver-Burk secondary plot, Ki')

B1: exactin (protein)
chain: LECYQKSKVVTCQPEQKFCYSDTTMFFPNHPVYLSGCTFSCTEEGNRRCCTTDKCNR
modifications: disulfide (positions not given here); also: four disulfide bonds, pairing not given here
Ki [1]: 129 µM | Ki [2]: 38.7 µM | Ki [3]: 1670 nM | Ki (FVIIa [E]): 184 nM | Ki [4]: 154 nM | Ki (FVIIa/FX complex [ES]): 103 nM | Ki [5]: 30.6 nM

B2: exactin (protein)
chain: B1 chain
Ki (FVIIa/sTF complex [E]): 1.25 mM | Ki [6]: 295 µM
